From patent publication US7572594B2, “Screening assays for agonists or antagonists or receptor activator of NF-κB” (Immunex Corporation, priority 2000, dated 2009)

How the values were obtained:
Format in all cases: cell-based, mouse
[1] = tested on: primary hematopoietic cells from the RANK −/− mice; assay: F-actin ring formation, phalloidin staining; conditions: 5 days in 40 ng/ml CSF-1 and 200 ng/ml mRANK-L
Description: To detect F-actin rings, cells are fixed, such as by exposure to 3% paraformaldehyde, and visualized by staining cells with a fluorescent probe that binds specifically with actin. A suitable fluorescent tag is phalloidin, which can be obtained from Molecular Probes, Eugene, Oreg. The fluorescent signal is detected, for example, using a standard fluorescent microscope, and the number of cells having F-actin rings is visually quantified. An F-actin ring is identified as a continuous ring of F-actin at the periphery of a cell, and these distinct structures are visible through a microscope.
A procedure to detect F-actin rings was carried out as follows. Primary hematopoietic cells from the RANK −/− mice were infected with retroviral constructs encoding either the full-length human RANK cDNA or the RANK/TRAF6 binding mutant (RANK Δ340-421). Cells were cultured on LabTek Chamber slides with #1 borosilicate coverglasses (Nalge/Nunc). After incubation for 5 days in MEM containing 10% fetal bovine serum containing 40 ng/ml CSF-1 and 200 ng/ml mRANK-L. The media was aspirated, washed twice in PBS and then fixed in a solution of 3% paraformaldehyde for 10 minutes, followed by quenching in 50 mM NH4Cl. […] The fluorescent signal was detected using a standard fluorescent microscope, and F-actin rings were identified as continuous rings of F-actin at the periphery of individual cells.

[2] = tested on: spleen cells from RANK −/− mice; assay: CaPO4 resorption (pit formation) assay; conditions: 5 days in 40 ng/ml CSF-1 and 200 ng/ml mRANK-L on CaPO4 film
Description: The resorption of CaPO4, upon which this assay is based, is considered to be a measure of osteoclast activity. Spleen cells were isolated from 3-6 week old RANK −/− mice and treated as described in Example 9 to remove cells expressing the CD3, Ter-119, and GR-1 antigens. Cells not expressing any of these antigens were harvested and infected as described in Example 9 with retroviral vector particles containing full-length or TRAF6 binding site deletion mutants of RANK.
Following infection, the spleen cells were harvested and plated in MEM containing 10% fetal bovine serum containing 40 ng/ml CSF-1 and 200 ng/ml mRANK-L onto 16 well quartz slides coated with a thin film of CaPO4 (Osteologic, BD Biosystems). After 5 days in culture, the slides were washed, the cells removed by washing with bleach, and the slides washed again with buffer. […] The number of pits in the CaPO4 film is a measure of the extent to which the RANK-L induced the cells grown on that slide to differentiate into osteoclasts.
If desired, the CaPO4 film can be stained using a 0.5% solution of alizarin red for 4 to 5 minutes followed by washing in water. After staining, the resorptive lacunae are visualized by phase contrast microscopy as a clear area on a red background.

c-src tyrosine kinase = assay: c-src immune complex kinase assay in RANK −/− osteoclast precursors infected with RANK retrovirus; conditions: cells differentiated after retroviral infection; background = uninfected RANK −/− cells
Experimental: Experiments were conducted in which DNA encoding wild-type or human RANK/TRAF6 binding mutant (RANK Δ340-421) was introduced into hematopoietic cells isolated from RANK −/− mice. Full-length and mutant human RANK DNAs were subcloned into the pBMNZ retroviral vector as previously described (Kinsella and Nolan, 1996, Human Gene Therapy 7:1405-1413). Infectious RANK-containing retrovirus was produced in 293-E Phoenix packaging cells as described (Kinsella and Nolan, 1996). Supernatants from these cells were used as a source of infectious virus particles.
The generation of the RANK −/− mice used in these assays has been described previously (Dougall et al., 1999). Spleen cells were isolated from 3-6 week old RANK−/− mice and enriched for osteoclast precursors by depleting the initial cell population of various types of cells other than osteoclast precursors. For this “depletion” step, the cells were incubated with biotinylated antibodies against CD3 (specific for T cells), Ter-119 (specific for erythrocytes), and GR-1 (specific for granulocytes). After the antibodies had bound to their respective target cells, streptavidin-conjugated magnetic beads were added to the culture, and the mixture of cells was passed over magnetic columns (MACS depletion columns; MILLTENNYI). […]
To induce c-src and F-actin rings, recombinant mRANK-L/leucine zipper protein was added to the cultures at a concentration of 1 μg/ml for various times after which the cells were lysed in a buffer containing 50 mM HEPES (pH 7.2), 10% glycerol, 250 mM NaCl and 1% Triton X-100. […] C-src activity in the immune complex was monitored using a commercially available assay kit (Upstate Biotechnology, Lake Placid, N.Y.). […] The phosphorylated substrate peptide was then separated from the residual labeled ATP using phosphocellulose paper and labeled peptide was quantified using a scintillation counter. […]

B1: RANK Δ340-421: human RANK (SEQ ID NO:2) with the TRAF6 binding site (amino acids 340-421) deleted (protein, listed as Homo sapiens)
chain: MAPRARRRRPLFALLLLCALLARLQVALQIAPPCTSEKHYEHLGRCCNKCEPGKYMSSKCTTTSDSVCLPCGPDEYLDSWNEEDKCLLHKVCDTGKALVAVVAGNSTTPRRCACTAGYHWSQDCECCRRNTECAPGLGAQHPLQLNKDTVCKPCLAGYFSDAFSSTDKCRPWTNCTFLGKRVEHHGTEKSDAVCSSSLPARKPPNEPHVYLPGLIILLLFASVALVAAIIFGVCYRKKGKALTANLWHWINEACGRLSGDKESSGDSCVSTHTANFGQQGACEGVLLLTLEEKTFPEDMCYPDQGGVCQGTCVGGGPYAQGEDARMLSLVSKTEIEEDSLQKEVDSGHCPHWAASPSPNWADVCTGCRNPPGEDCEPLVGSPKRGPLPQCAYGMGLPPEEEASRTEARDQPEDGADGRLPSSARAGAGSGSSPGGQSPASGNVTGNSNSTFISSGQVMNFKGDIIVVYVSQTSQEGAAAAAEPMGRPVQEETLARRDSFAGNGPRFPDPCGGPEGLREPEKASRPVQEQGGAKA
- cells with F-actin rings [1]: no F-actin rings were discerned
- CaPO4 resorption [2]: insignificant levels of CaPO4 resorption
- c-src activity (c-src tyrosine kinase): not discernibly different from background levels
